Measurements published in patent US6001823A, “Treatment or prophylaxis of diseases caused by pilus-forming bacteria” (priority 1995, dated 1999).
Entries after “also recorded” stand apart in the source; their conditions may differ.

Legend:
PapD [1] = molecular target: T1, PapD (Escherichia coli, UniProt P15319); assay: ELISA: peptide inhibition of PapD binding to MBP-G1'-140' fusion protein; set-up: species or system E. coli; settings: PapD preincubated with peptide at 1:25 ratio
T1 sequence (P15319 22-239): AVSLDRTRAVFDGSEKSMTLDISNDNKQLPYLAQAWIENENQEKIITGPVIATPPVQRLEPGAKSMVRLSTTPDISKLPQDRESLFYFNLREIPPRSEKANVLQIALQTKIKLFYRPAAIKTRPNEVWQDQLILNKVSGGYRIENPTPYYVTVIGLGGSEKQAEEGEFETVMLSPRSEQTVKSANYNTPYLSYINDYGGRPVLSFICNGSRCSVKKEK
Method: The ability of the peptides to inhibit the binding of PapD to the MBP-G1'-140' fusion protein was then investigated using the following ELISA test:
Stock solutions of MBP-G1'-140' proteins in PBS were diluted to 0.1 μM with PBS. The wells of microtiter plates were coated with 50 μl of the protein solutions overnight at 4° C. The wells were washed with PBS, and blocked with 200 μl of 3% bovine serum albumin (BSA) in PBS for 2 hours at 25° C. The plates were washed vigorously three times with PBS and incubated with 50 μl of 1-5 μM PapD proteins in 3% BSA-PBS for 45 minutes at 25° C. The PapD was preincubated with each of the peptides at a 1:25 ratio for 30 min before being added to the wells. After three washings with PBS, the wells were incubated with a 1:500 dilution of rabbit anti-PapD antiserum in 3% BSA-PBS for 45 minutes at 25° C. After three washings with PBS, the wells were incubated with a 1:1000 dilution of goat antiserum to rabbit IgG coupled to alkaline phosphatase in 3% BSA-PBS for 45 minutes at 25° C. After three washings with PBS and three washings with developing buffer (10 mM diethanolamine, 0.5 mM MgCl2), 50 μl filtered 1 mg/ml p-nitrophenyl phosphate in developing buffer was added, the reaction was incubated for 1 hour or longer if necessary in the dark at 25° C., and the absorbance at 405 nm was read.

[2] = Water solubility of peptides; assay type: physicochemical; set-up: key: *: Water insoluble peptides
PapD [3] = molecular target: T1, PapD; assay: ELISA: PapD binding to peptides coated on microtiter wells; set-up: made in house; species or system E. coli; settings: for binding of PapD to immobilized peptide: peptide coated on microtiter wells, ELISA; for reduction of binding of PapD to the immobilized peptide: variant of the PapG carboxyl terminal peptide
Method: The residues in the peptides were numbered starting with the carboxyl terminal residue as 1, and ending with the amino terminal residue. Peptides were also synthesized which deviated in length (G1'-16'WT, G1'-11'WT, G1'-7'WT) or sequence (G2'-21'amide, G1'-19'SV, G1'-19'NH2) from the wild type PapG carboxyl terminal sequence. Using an enzyme-linked immunosorbent assay (ELISA), we tested the ability of PapD to bind to each peptide coated on wells of microtiter plates:
5 mg/ml stock solutions of peptides in water or 50% acetic acid were diluted to a concentration of 2.5 pmol/50 μl in PBS. 50 μl of the peptide solution was coated overnight onto microtiter wells (Nunc-Immuno Plate Maxisorp) at 4° C. The solutions in the plates were discarded, and the wells were blocked with 200 μl 3% bovine serum albumin (BSA, Sigma) in PBS (120 mM NaCl/2.7 mM KCl/10 mM phosphate buffer salts, pH 7.4) for 2 hours at 25° C. The plates were washed vigorously 3 times with PBS and incubated with 50 μl of the indicated amount of purified PapD (Lindberg et al, 1989). After 3 washes with PBS, the wells were incubated with a 1:500 dilution of anti-PapD rabbit antiserum (Lindberg et al, 1989) in 3% BSA/PBS for 45 min. at 25° C. After 3 washes with PBS, the wells were incubated with a 1:1000 dilution of goat anti-rabbit IgG coupled to alkaline phosphatase (Sigma) in 3% BSA/PBS for 45 min. at 25° C. Following 3 washes with PBS and 3 washes with developing buffer (10 mM diethanolamine pH 9.5, 0,5 mM MgCl2), 50 μl filtered p-nitrophenyl phosphate substrate (Sigma) in developing buffer (10 mg/ml) was added. The absorbance at 405 nm was read after 60 min of incubation in the dark at 25° C.

PapD [4] = molecular target: T1, PapD; assay: Protection of PapD against tryptic cleavage by peptides; assay type: biochemical, E. coli; set-up: made in house; settings: PapD preincubated with 20-fold molar excess of peptide
Method: A Lower: The rate of trypsin cleavage of PapD decreased upon preincubation with the G1'-19'WT, G1'-16'WT or K1'-19'WT peptides, but the G2'-21'amide peptide had no effect. 50 μg of purified PapD was preincubated for 15 min at 25° C. with a 20-fold molar excess of G1'-19'WT, G1'-16'WT, K1'-19'WT or G2'-21'amide peptides (any trypsin cleavage sites in these peptides occur at their amino termini where they were predicted not to interfere with PapD), or an equivalent volume of water. Each sample was then incubated at 37° C. with 3.2 μg of trypsin. Aliquots were removed after 0, 5, 10, 20, 30 and 40 min and boiled in SDS-PAGE sample buffer to stop the digestion. The samples were applied to 15% SDS-PAGE gels and the amount of full-length PapD remaining was determined by densitometry of Coomassie blue stained bands corresponding to full-length PapD which are shown.
400 μg of PapD was partially digested by incubation with either 4,5 μg trypsin or 0.45 μg chymotrypsin on PBS for 20 min. at 37° C. The PapD digests were applied to a C-18 HPLC column (Beckman) and 2 major fragments were eluted with a 0-100% acetonitrile gradient in 0.01% trifluoroacetic acid. The PapD fragments were identified by their molecular weight on SDS-PAGE and amino-terminal sequencing. The N-terminal amino acid sequences of the approximately 14 kDa tryptic and chymotryptic fragments were identified as residues 100-108 and 104-109 of PapD, respectively, corresponding to cleavage after Lys-99 (for trypsin) and Leu-103 (for chymotrypsin). The N-terminal sequences of the 11 and 12 kDa bands in the digests were identical to the N-terminal sequence of PapD.

PapD [5] = molecular target: T1, PapD; assay: Soluble inhibition ELISA: peptide inhibition of PapD binding to G1'-19'WT-coated wells; set-up: made in house; species or system E. coli; settings: for % Inhibition: 25-fold molar excess of peptide, 100 pmol/well PapD, G1'-19'WT-coated wells; for inhibition of PapD binding to immobilized G1'-19'WT by soluble peptide: peptide in solution
Method: In addition, the ability of water-soluble peptides to inhibit PapD binding to G1'-19'WT-coated wells in a soluble inhibition ELISA were tested, since peptide conformations may have been affected by binding to the plastic microtiter plates:
Microtiter wells were coated overnight at 4° C. with 50 μl of 2,5 pmol/50 μl of the G1'-19'WT peptide. The wells were washed with PBS and blocked with 3% bovine serum albumin (BSA). A 25-fold molar excess of each test peptide was pre-incubated with 100 pmoles PapD for 30 min. and the PapD-peptide solution was then added to the coated wells and incubated at 25° C. for 45 min in the presence of 3% BSA/PBS. The subsequent primary antibody, secondary antibody and developing steps are described above. The ability of the peptides to inhibit binding of PapD to the G1'-19'WT peptide was calculated by dividing the amount of PapD binding in the presence of peptide with the amount of PapD binding in the presence of water. 0% inhibition includes values where binding was greater than that of PapD pre-incubated with H2 O.
The % inhibition represents the percentage of PapD binding in the presence of the peptide compared to in the presence of water and are the average of two experiments performed duplicate: […]

PapD-PapG complex = molecular target: T2, PapD-PapG complex (Escherichia coli, UniProt P15319); assay: Reconstitution assay: restoration of PapD-PapG complex from reduced, denatured PapG; assay type: biochemical, E. coli; settings: PapD incubated with increasing amounts of peptide
T2 construct: made in house
T2 sequence (P15319 22-239): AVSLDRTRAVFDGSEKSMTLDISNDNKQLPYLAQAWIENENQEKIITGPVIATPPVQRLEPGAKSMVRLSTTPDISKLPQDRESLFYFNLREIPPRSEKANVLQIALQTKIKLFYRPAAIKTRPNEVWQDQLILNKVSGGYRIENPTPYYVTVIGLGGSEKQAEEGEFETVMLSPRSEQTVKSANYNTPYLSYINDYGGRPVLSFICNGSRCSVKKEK
Method: B: PapD incubated with the G1'-19'WT, G1'-16'WT, K1'-19'WT, and G2'-21'amide was added to reduced, denatured PapD-PapG and the amount of PapD-PapG complex restored in each sample was quantitated as described in example 2. The % inhibition represents the amount of the PapD-PapG complex restored with peptide-treated PapD compared to the amount of PapD-PapG complex restored with untreated PapD. The graph represent the average of 4 experiments. PapD and PapD-PapG complex were prepared as described in F. Lindberg et al, J. Bacteriol. 171, 6052 (1989) and S. J. Hultgren et al., Proc. Natl. Acad. Sci. U.S.A. 86, 4357 (1989).
FIG. 7: Ability of PapD Arg-8, Lys-112 and Thr-7 mutants to bind PapG and restore the PapD-PapG complex in vitro. 0.4 μg of PapD-PapG complex was reduced and denatured as described in FIG. 2B. The denatured PapD-PapG complex was then diluted with 0-630 ng purified wild type (WT) or mutant PapD. The amount of PapD-PapG restored in the samples was determined as in FIG. 2B and was graphed as a percentage of the greatest amount of PapD-PapG restored. The values graphed represent the average of 3 experiments. Wild type and mutant PapD and the PapD-PapG complex were purified as described in F. Lindberg et al, J. Bacteriol. 171, 6052 (1989) and S. J. Hultgren et al., Proc. Natl. Acad. Sci. U.S.A. 86, 4357 (1989).
As described in Kuehn et al., Proc. Natl. Acad. Sci. U.S.A. 88, 10586 (1991), native PapD is able to bind to reduced, denatured PapG and restore the PapD-PapG complex in vitro. This reconstitution assay was used to determine the ability of the peptides to inhibit PapD activity in vitro.
The PapD-peptide solution was then added to the reduced, denatured PapD-PapG, incubated at 25° C. for 10 min, and applied to an IEF 3-9 gel (Pharmacia). The amount of PapD-PapG restored in each sample was quantitated by densitometry of the silver stained IEF band corresponding to the pI of the DG complex.

HB101/pPAP37 = assay: Hemagglutination titer of PapD mutants; assay type: cell-based, E. coli; settings: induction with 0.01 mM IPTG; greatest bacterial dilution which still agglutinates erythrocytes
Method: *The hemagglutionation (HA) titer was quantitated after induction with
0.01 mM IPTG. The HA titer represents the greatest bacterial dilution
which still agglutinates erythrocytes. HB101/pPAP37 expressing wild type
PapD has an HA titer of 128.

H-SGSMTMVLSFP-OH [G1'-11'WT, NH2--SGSMTMVLSFP--COOH]
inhibition of binding of PapD to MBP-G1'-140' fusion protein (PapD [1]): significantly more potent
water solubility [2]: *
binding of PapD to immobilized peptide (PapD [3]): binds

NH2--EEGKRKPGELSGSMTMVLSF--CONH2 (H-EEGKRKPGELSGSMTMVLSF-NH2) [G2'-21'amide]
rate of tryptic cleavage of PapD (PapD [4]): no effect
% Inhibition (PapD [5]): 0%
inhibition of PapD binding to immobilized G1'-19'WT by soluble peptide (PapD [5]): abolished binding
binding of PapD to immobilized peptide (PapD [3]): reduced binding
reduction of binding of PapD to the immobilized peptide (PapD [3]): approximately 75%
inhibition of restoration of the PapD-PapG complex by PapD (PapD-PapG complex): no effect

NH2--GILNGGDFQTTASMAMIYN--COOH (H-GILNGGDFQTTASMAMIYN-OH) [F1'-19'WT]
binding of PapD to immobilized peptide (PapD [3]): moderately

NH2--GKRKPGELSGSMTMVLSFP--CONH2 (H-GKRKPGELSGSMTMVLSFP-NH2) [G1'-19'amide]
% Inhibition (PapD [5]): 56%
inhibition of PapD binding to immobilized G1'-19'WT by soluble peptide (PapD [5]): did not affect binding
binding of PapD to immobilized peptide (PapD [3]): did not affect binding

NH2--GKRKPGELSGSMTMVLSFP--COOH (H-GKRKPGELSGSMTMVLSFP-OH) [G1'-19'WT, 19 carboxyl terminal residues of PapG]
rate of tryptic cleavage of PapD (PapD [4]): decreased; also recorded: reduced the rate of tryptic cleavage
% Inhibition (PapD [5]): 63%
binding of PapD to immobilized peptide (PapD [3]): bound well
inhibition of restoration of the PapD-PapG complex by PapD (PapD-PapG complex): inhibit restoration

NH2--GKRKPVELSGSMTMVLSSP--COOH (H-GKRKPVELSGSMTMVLSSP-OH) [G1'-19'SV]
inhibition of PapD binding to immobilized G1'-19'WT by soluble peptide (PapD [5]): as efficient a soluble PapD inhibitor as the peptide G1'-19'WT
reduction of binding of PapD to the immobilized peptide (PapD [3]): 36%

NH2--KKLEAGNYFAVLGFRVDYE--COOH (H-KKLEAGNYFAVLGFRVDYE-OH) [H1'-19'WT]
binding of PapD to immobilized peptide (PapD [3]): no binding

NH2--KSVVPGDYEATATFELTYR--COOH (H-KSVVPGDYEATATFELTYR-OH) [K1'-19'WT]
rate of tryptic cleavage of PapD (PapD [4]): decreased; also recorded: reduced the rate of tryptic cleavage
binding of PapD to immobilized peptide (PapD [3]): moderately
inhibition of restoration of the PapD-PapG complex by PapD (PapD-PapG complex): inhibit restoration

NH2--QNLIAGPFSATATLVASYS--COOH (H-QNLIAGPFSATATLVASYS-OH) [E1'-19'WT]
water solubility [2]: *
binding of PapD to immobilized peptide (PapD [3]): moderately

NH2--YALAPNAVIPTSLALL--COOH (H-YALAPNAVIPTSLALL-OH) [MS, random hydrophobic peptide, reference compound]
% Inhibition (PapD [5]): 1%
binding of PapD to immobilized peptide (PapD [3]): no binding

B1: wild type PapD: wild type periplasmic chaperone PapD (protein, UniProt P15319 22-239, looked up)
Chaperone protein PapD: AVSLDRTRAVFDGSEKSMTLDISNDNKQLPYLAQAWIENENQEKIITGPVIATPPVQRLEPGAKSMVRLSTTPDISKLPQDRESLFYFNLREIPPRSEKANVLQIALQTKIKLFYRPAAIKTRPNEVWQDQLILNKVSGGYRIENPTPYYVTVIGLGGSEKQAEEGEFETVMLSPRSEQTVKSANYNTPYLSYINDYGGRPVLSFICNGSRCSVKKEK
HA titer (HB101/pPAP37): 128
